The labels stand for the following.
B1: mouse PTPδ Ig1-Fn1 (residues 28-418), splice variant meA9B+ [modified: N-linked glycans] [mouse] / mouse Slitrk2 LRR1 (first leucine-rich repeat of Slit and Trk-like family member 2), wild type [modified: N-linked glycans; N-linked … (parent complex)
chain 1: ETPPRFTRTPVDQTGVSGGVASFICQATGDPRPKIVWNKKGKKVSNQRFEVIEFDDGSGSVLRIQPLRTPRDEAIYECVASNNVGEISVSTRLTVLREDQIPRGFPTIDMGPQLKVVERTRTATMLCAASGNPDPEITWFKDFLPVDTSNNNGRIKQLRSESIGGTPIRGALQIEQSEESDQGKYECVATNSAGTRYSAPANLYVRELREVRRVPPRFSIPPTNHEIMPGGSVNITCVAVGSPMPYVKWMLGAEDLTPEDDMPIGRNVLELNDVRQSANYTCVAMSTLGVIEAIAQITVKALPKPPGTPVVTESTATSITLTWDSGNPEPVSYYIIQHKPKNSEEPYKEIDGIATTRYSVAGLSPYSDYEFRVVAVNNIGRGPASEPVLTQK
chain 2: MLSGVWFLSVLTVAGILQTESRKTAKDICKIRCLCEEKENVLNINCENKGFTTVSLLQPPQYRIYQLFLNGNLLTRLYPNEFVNYSNAVTLHLGNNGLQEIRPGAFSGLKTLKRLHLNNNKLEVLREDTFLGLESLEYLQADYNYISTIEAGAFSKLNKLKVLILNDNLLLSLPSNVFRFVLLTHLDLRGNRLKVMPFAGVLEHIGGIMEIQLEENPWNCTCDLLPLKAWLDTITVFVGEIVCETPFRLHGKDVTQLTRQDLCPRK

In the assay the parent is B1. The experiment in a line: SPR equilibrium analysis; point at 4 µM PTPδ Ig1-Fn1 (highest concentration); parent: 600; read off a plot.
Take chain 2 MLSGVWFLSVLTVAGILQTESRKTAKDICKIRCLCEEKENVLNINCENKGFTTVSLLQPPQYRIYQLFLNGNLLTRLYPNEFVNYSNAVTLHLGNNGLQEIRPGAFSGLKTLKALHLNNNKLEVLREDTFLGLESLEYLQADYNYISTIEAGAFSKLNKLKVLILNDNLLLSLPSNVFRFVLLTHLDLRGNRLKVMPFAGVLEHIGGIMEIQLEENPWNCTCDLLPLKAWLDTITVFVGEIVCETPFRLHGKDVTQLTRQDLCPRK [chain 2 R114A]: the response was about 490 Response unit.
Next, chain 2 MLSGVWFLSVLTVAGILQTESRKTAKDICKIRCLCEEKENVLNINCENKGFTTVSLLQPPQYRIYQLFLNGNLLTRLYPNEFVNYSNAVTLHLGNNGLQEIRPGAFSGLKTLKRLHLNNNKLEVLREDTFLGLESLEYLQADYNYISTIEAGAFSKLNKLKVLILNDNLLLSLPSNVFRFVLLTHLALRGNRLKVMPFAGVLEHIGGIMEIQLEENPWNCTCDLLPLKAWLDTITVFVGEIVCETPFRLHGKDVTQLTRQDLCPRK [chain 2 D187A]: about 120 Response unit; chain 2 MLSGVWFLSVLTVAGILQTESRKTAKDICKIRCLCEEKENVLNINCENKGFTTVSLLQPPQYRIYQLFLNGNLLTRLYPNEFVNYSNAVTLHLGNNGLQEIRPGAFSGLKTLKRLHLNNNKLEVLREDTFLGLESLEYLQADYNYISTIEAGAFSKLNKLKVLILNDNLLLSLPSNVFRFVLLTHLDLRGNRLKVMPFAGVLEHIGGIMEIQLEENPWNCTCDLLPLKAWLDTITVFVGEIVCETPARLAGKDVTQLTRQDLCPRK [chain 2 F247A, chain 2 H250A]: about 460 Response unit.
As for chain 2 MLSGVWFLSVLTVAGILQTESRKTAKDICKIRCLCEEKENVLNINCENKGFTTVSLLQPPQYRIYQLFLNGNLLTRLYPNEFVNYSNAVTLHLGNNGLQEIRPGAFSGLKTLKRLHLNNNKLEVLREDTFLGLESLEYLQADYNYISTIEAGAFSKLNKLKVLILNDNLLLSLPSNVFRFVLLTHLDLRGNRLKVMPFAGVLEHIGGIMEIQLEANPWNCTCDLLPLKAWLDTITVFVGEIVCETPFRLHGKDVTQLTRQDLCPRK [chain 2 E215A], the figure is about 210 Response unit; as for chain 2 MLSGVWFLSVLTVAGILQTESRKTAKDICKIRCLCEEKENVLNINCENKGFTTVSLLQPPQYRIYQLFLNGNLLTRLYPNEFVNYSNAVTLHLGNNGLQEIRPGAFSGLKTLKRLHLNNNKLEVLREDTFLGLESLEYLQADYNYISTIEAGAFSKLNKLKVLILNANLLLSLPSNVFRFVLLTHLDLRGNRLKVMPFAGVLEHIGGIMEIQLEENPWNCTCDLLPLKAWLDTITVFVGEIVCETPFRLHGKDVTQLTRQDLCPRK [chain 2 D167A], about 100 Response unit.

Source of the values: article PMC4437028 (2015).
